Assay results as given in US20160235810A1, “METHODS OF TREATING DIABETES AND RELATED DISORDERS” (NOVARTIS AG, priority 2013, published 2016).

Tests used:
[1] = system: high fat diet-induced obese (DIO) mice; experiment: OGTT after hydrodynamic injection (HDI) of vector encoding PIP/Sval1 in high fat DIO mice; type: in vivo
Excerpt: To ascertain if this newly implicated factor can replicate some of the benefits shown by the RYGB surgery, a hydrodynamic gene delivery method was developed in-house. We tested the effect of delivery of DNA encoding the secreted factor PIP in vivo. The Fc-fusion proteins of PIP was encoded in pLEV113 vector, which was delivered via hydrodynamic injection (HDI) in high fat diet-induced obese (DIO) mice.
Mice, that were maintained for 12 weeks on high fat diet (60% Kcal fat, Research Diets), were sorted into groups based on their body weights and fed blood glucose levels. On the day of HDI of the PIP vector or control pLEV113 vector (30 ug/mouse), mice were placed in a restrainer and tails were cleaned with 70% alcohol. A 27-G butterfly needle connected with a 3 ml syringe was inserted into the tail vain, with bevel facing up, and pulled backwards on the syringe plunger to ensure blood was drawn into the syringe. The desired volumes (7% of body weight, up to a total of 3.2 mL) of DNA construct solution was injected over a short period (5-10 seconds) by hand. The needle was then withdrawn and bleeding stopped by adding pressure to the injection site with gauze.
After the HDI procedure, mice were monitored twice daily in the first 48 hours and then once per day for a week. Basal fed blood glucose levels in mice were measured at day 14, and blood samples were collected to obtain plasma for measuring Fc level or for endogenous protein levels in the future.
At day 16 post-HDI an OGTT was conducted to evaluate glucose handling and beta cell function. Basal and glucose-stimulated glucose and insulin levels were measured over 2-3 hours during the OGTT.
At day 30, basal blood glucose levels, changes in weight or food intake, and another functional tests, such as an OGTT, were performed for a 2nd time.
At day 40 post-HDI, the study was terminated by euthanization of mice and plasma collected for key metabolic biomarkers.

[2] = system: diabetic non-human primates; details: Kharitonenkov et al. 2007; cited from earlier work

B1: human PIP: human prolactin-inducible protein (GenBank NP_002643), here delivered via HDI of vector (protein, UniProt P12273 29-146, looked up)
Prolactin-inducible protein: QDNTRKIIIKNFDIPKSVRPNDEVTAVLAVQTELKECMVVKTYLISSIPLQGAFNYKYTACLCDDNPKTFYWDFYTNRTVQIAAVVDVIRELGICPDDAAVIPIKNNRFYTIEILKVE
Question: For B1, which “beta cell function compared to mouse Sval1” value ([1]; HDI administration in DIO mice) is on record?
Answer: improved beta cell function similar to that of mouse Sval1

B2: FGF-21: Fibroblast Growth factor 21, an endocrine hormone; proposed fusion partner (protein)
chain: HPIPDSSPLLQFGGQVRQRYLYTDDAQQTEAHLEIREDGTVGGAADQSPESLLQLKALKPGVIQILGVKTSRFLCQRPDGALYGSLHFDPEACSFRELLLEDGYNVYQSEAHGLPLHLPGNKSPHRDPAPRGPARFLPLPGLPPALPEPPGILAPQPPDVGSSDPLSMVGPSQGRSPSYAS
Question: For B2, which “increase in HDL cholesterol” value [2] is on record?
Answer: ~80%

B3: mouse PIP: mouse prolactin-inducible protein, delivered as DNA in pLEV113 vector via hydrodynamic injection (full length native and Fc-tagged tested) (protein, UniProt P02816 27-146, looked up)
Prolactin-inducible protein …: QDDENVRKPLLIEIDVPSTAQENQEITVQVTVETQYRECMVIKAYLVSNEPMEGAFNYVQTRCLCNDHPIRFFWDIIITRTVTFATVIDIVREKNICPNDMAVVPITANRYYTYNTVRMN
Question: For B3, which “reduction in glucose area under the curve during an OGTT” value ([1]; hydrodynamic gene delivery, high fat DIO mice, glucose AUC 0-120 min, compared to vector control group) is on record?
Answer: 30%

Question: What about the “increase in insulin area under the curve (GSIS) during an OGTT” value ([1]; hydrodynamic gene delivery, high fat DIO mice, insulin AUC 0-30 min, compared to vector control group) of the same molecule?
Answer: 72%
